Laboratory results taken from article PMC8155481.

Assays:
[1] = target: FBG-like domain of human Tenascin-W with Arg1220 changed to alanine (FBG-W^RKKA) (human); assay: SPR; Biacore T200; FBG-like domains immobilised on CM5 by amine coupling; mature TGF-β1 injected in single-cycle mode; PBS with 0.05% P-20, 25°C, 30 µl/min; heterogeneous ligand model; apparent constants
[2] = target: FBG-like domain of human Tenascin-X (human); assay: as above

Question: Which KD1 (heterogeneous ligand model, site 1) [1] does the source give for “recombinant human mature TGF-β1 (ligand)” here?
Answer: 1.89 µM

Question: And the KD2 (heterogeneous ligand model, site 2) [1]?
Answer: 6.48 µM

Question: And the ka1 (heterogeneous ligand model, site 1) [1]?
Answer: 1040 M⁻¹ s⁻¹

Question: And the ka2 (heterogeneous ligand model, site 2) [1]?
Answer: 14300 M⁻¹ s⁻¹

Question: And the kd1 (heterogeneous ligand model, site 1) [1]?
Answer: 0.00196 s⁻¹

Question: And the kd2 (heterogeneous ligand model, site 2) [1]?
Answer: 0.0926 s⁻¹

Question: What about the ka1 (heterogeneous ligand model, site 1) [2] of the same substance?
Answer: 8080 M⁻¹ s⁻¹

Question: And the ka2 (heterogeneous ligand model, site 2) [2]?
Answer: 207000 M⁻¹ s⁻¹

Question: What about the kd1 (heterogeneous ligand model, site 1) [2] of the same substance?
Answer: 0.00276 s⁻¹

Question: What about the kd2 (heterogeneous ligand model, site 2) [2] of the same substance?
Answer: 0.0845 s⁻¹
